Laboratory results reported in patent US20220348635A1, “COMPOSITIONS AND METHODS FOR NEUROLOGICAL DISEASES” (Coda Biotherapeutics, Inc., priority 2019, published 2022).

What was measured:
Type in all cases: cell-based
[1] = YFP quench plate reader assay, response to acetylcholine; conditions: LX293T YFP reporter cells
Source text: (§1) FIGS. 1A-FIG. 1G show the heat maps of the percent quench of YFP fluorescence in the mutants of the engineered chimeric receptor SEQ ID NO:33 that comprise the indicated double amino acid substitutions following stimulation by various doses of either acetylcholine or the indicated non-native ligand. Ligand doses are written across the top of each chart. Numbers in the boxes indicate the absolute amount of quench observed. Dark blue=80% maximal quench of YFP reporter. Light blue=quench of 30-80%. White=10-30%. Orange=0-10% quench. Negative values represent non-responders that have a negative quench due to a stimulation artifact. SEQ ID NO:29 is a non-responding chimera used as a negative control. Abbreviations for non-native ligand names: abt: ABT-126; ach: acetylcholine; apn: APN-1125; azd: AZD-0328; brd: TC-5619; fac: RG3487; tc6: TC-6987.
(§2) Tables 2-8 below lists percent quench of YFP fluorescence following stimulation of the indicated engineered receptor by various doses of either acetylcholine or the non-native ligand.
(§3) To screen these mutant LGICs for those having novel response profiles to ligands, an anion reporter assay was developed to assess the function of channels in a high throughput format. In this assay, cells expressing a YFP reporter whose fluorescence is quenched in the presence of anion are transfected with DNA encoding the channel of interest. Upon exposure to ligand, channels that are activated will flux anion, resulting in a dose-dependent quench of the YFP that can be detected on a plate reader.
(§4) Lenti-X 293T cells (LX293T, Clontech) were maintained in DMEM containing 10% FBS and 1% penicillin/streptomycin (Invitrogen). […] Two days before assay, cells were split at a density of 20,000 cells/well in a 96-well tissue culture plate coated with poly-d lysine (Thermo Scientific). The next day, the cells were transiently transfected with 0.1 μg of DNA per well using standard Fugene protocol (Promega). On the day of assay, cells were washed 2 times in 1× extracellular solution (1×ECS: 140 mM NaCl, 5 mM KCl, 1 mM MgCl2, 2 mM CaCl2, 10 mM HEPES, 10 mM glucose, pH 7.2, mOsms 300). After the last wash, 100 μL of 1×ECS was added to the wells and the plate was incubated at 37° C. for 30 min. While incubating the plate, the drugs were diluted to a 2× concentration in 1×ECS-NaI (same components as 1×ECS except the 140 mM NaCl was replaced by 140 mM NaI). The plates were then read on a Flexstation3 (Molecular Devices). Each well, 8 wells at a time, of the plate is read for 2 min using a Flexstation3 (Molecular Devices) as follows: 1) a baseline YFP fluorescence is read for 17 sec, 2) 100 μL of ligand is added, and 3) the changes in YFP fluorescence are then measured every 1.3 sec for the remaining time.
(§5) FIG. 1 provides heat maps of the percent quench of YFP fluorescence following stimulation by various doses of either acetylcholine or the non-native ligand as indicated in the Figure. A positive fluorescence signal, as indicated by blue shaded cells, indicate that the engineered receptor is activated by the non-native ligand at that concentration. […] Table 12 lists the EC50 values for the indicated double mutants to acetylcholine (Ach) and TC-5619 as determined from the YFP fluorescence plate reader experiment.

[2] = High throughput electrophysiology in HEK293T cells, AZD-0328; conditions: HEK293T cells, held at −60 mV
Method: To confirm the EC50s determined by plate reader as well as develop a better understanding of maximum current flow, the engineered receptors were subjected to high throughput electrophysiology system, as described below. For HEK293T studies, cDNAs encoding ion channels were cloned into pcDNA3.1 using standard recombination techniques. HEK293T cells from Clontech (Lenti-X™ 293T Cell Line) were cultured in DMEM supplemented with 10% FBS and 1% Pen/Strep to 40-50% confluence using standard cell culture protocols, transfected with ion channel plasmids at a concentration of 18 μg per 15 cm dish using Fugene 6, and grown for an additional 24 hours. Cells were then assayed on a electrophysiological system (IonFluxHT and/or Mercury, Fluxion Biosciences) in which dose-response relationships may be assessed through a microfluidics-based platform for establishing whole cell configurations. Ensemble plates were primed with extracellular buffer (140 mM NaCl, 5 mM KCl, 2 mM CaCl2), 1 mM MgCl2, 10 mM HEPES, and 10 mM glucose, pH 7.2 with NaOH, mOsm 310), intracellular buffer (145 mM CsCl, 2 mM CaCl2, 2 mM MgCl2, 10 mM HEPES, and 10 mM EGTA, pH 7.2 with CsOH, mOsm 305), as adapted from Lynagh and Lynch, and test compounds (stocks prepared fresh) diluted in extracellular buffer. Cells were then released from the plate with Accutase, centrifuged, resuspended in extracellular buffer, and loaded into Ensemble plates. Cells were then subjected to a standard protocol for priming, trapping, breaking, and establishing whole cell configuration, with cells held at −60 mV throughout the recording. After recording baseline, progressive doses of test compounds were applied using the IonFlux software to assess dose response relationships. Data were then analyzed off-line using custom Python scripts to convert data to .csv format, re-plot traces, and apply QC measurements to reject unstable recordings (i.e. thresholding based on access resistance and/or standard deviation in baseline, as well as artifact rejection). Peak currents were then calculated and population data were fit using a 4-parameter logistic equation as described by the Hill Equation. Currents were measured on an automated patch clamp system (Fluxion Biosciences) following 1 second addition of drug and the EC50 values calculated are tabulated below in Table 13.

[3] = YFP quench plate reader assay, response to ABT-126; conditions: LX293T YFP reporter cells
Source text: as §1, §2, §3, §4, §5

[4] = YFP quench plate reader assay, response to RG3487; conditions: LX293T YFP reporter cells
Source text: as §1, §2, §3, §4, §5

[5] = YFP quench plate reader assay, response to TC-5619; conditions: LX293T YFP reporter cells
Source text: as §1, §2, §3, §4, §5

[6] = YFP quench plate reader assay, response to AZD-0328; conditions: LX293T YFP reporter cells
Source text: as §1, §2, §3, §4, §5

[7] = YFP quench plate reader assay, response to APN-1125; conditions: LX293T YFP reporter cells
Source text: as §1, §2, §3, §4, §5

[8] = YFP quench plate reader assay, response to TC-6987; conditions: LX293T YFP reporter cells
Source text: as §1, §2, §3, §4, §5

B1: Y115D, S170T in SEQ ID NO: 33: engineered chimeric α7-nAChR/GlyRα1 LGIC receptor: SEQ ID NO: 33 with substitutions Y115D and S170T (protein)
chain: MRCSPGGVWLALAASLLHVSLQGEFQRKLYKELVKNYNPLERPVANDSQPLTVYFSLSLLQIMDVDEKNQVLTTNIWLQMSWTDHYLQWNVSEYPGVKTVRFPDGQIWKPDILLDNSADERFDATFHTNVLVNSSGHCQYLPPGIFKSSCPMDLKNFPMDVQTCKLKFGTWSYGGWSLDLQMQEADISGYIPNGEWDLVGIPGKRSERFYECCKEPYPDVTFTVTMRRRMGYYLIQMYIPSLLIVILSWISFWINMDAAPARVGLGITTVLTMTTQSSGSRASLPKVSYVKAIDIWMAVCLLFVFSALLEYAAVNFVSRQHKELLRFRRKRRHHKSPMLNLFQEDEAGEGRFNFSAYGMGPACLQAKDGISVKGANNSNTTNPPPAPSKSPEEMRKLFIQRAKKIDKISRIGFPMAFLIFNMFYWIIYKIVRREDVHNQ
modifications: synthetic sequence of chimeric LGIC
- percent quench of YFP fluorescence, 10 uM ach ([1]; 10 uM acetylcholine): −0.46%
- percent quench of YFP fluorescence, 100 uM ach ([1]; 100 uM acetylcholine): −4.93%
- percent quench of YFP fluorescence, 1 mM ach ([1]; 1 mM acetylcholine): −11.18%
- percent quench of YFP fluorescence, 3 mM ach ([1]; 3 mM acetylcholine): −3.53%
- EC50 AZD-0328 [2]: no activity
- percent quench of YFP fluorescence, 50 nM abt ([3]; 50 nM ABT-126): −11.83%
- percent quench of YFP fluorescence, 100 nM abt ([3]; 100 nM ABT-126): −11.5%
- percent quench of YFP fluorescence, 300 nM abt ([3]; 300 nM ABT-126): −8.01%
- percent quench of YFP fluorescence, 1 uM abt ([3]; 1 uM ABT-126): −9.34%
- percent quench of YFP fluorescence, 30 nM fac ([4]; 30 nM RG3487): 38.08%
- percent quench of YFP fluorescence, 100 nM fac ([4]; 100 nM RG3487): −14.37%
- percent quench of YFP fluorescence, 300 nM fac ([4]; 300 nM RG3487): 19.41%
- percent quench of YFP fluorescence, 10 uM fac ([4]; 10 uM RG3487): 67.33%
- percent quench of YFP fluorescence, 30 uM fac ([4]; 30 uM RG3487): 79.67%
- percent quench of YFP fluorescence, 1 nM brd ([5]; 1 nM TC-5619): −9.78%
- percent quench of YFP fluorescence, 3 nM brd ([5]; 3 nM TC-5619): 12.06%
- percent quench of YFP fluorescence, 10 nM brd ([5]; 10 nM TC-5619): −9.02%
- percent quench of YFP fluorescence, 30 nM brd ([5]; 30 nM TC-5619): 16.3%
- percent quench of YFP fluorescence, 100 nM brd ([5]; 100 nM TC-5619): −7.44%
- percent quench of YFP fluorescence, 300 nM brd ([5]; 300 nM TC-5619): −10.93%
- percent quench of YFP fluorescence, 1 uM brd ([5]; 1 uM TC-5619): −4.55%
- percent quench of YFP fluorescence, 100 nM azd ([6]; 100 nM AZD-0328): −0.71%
- percent quench of YFP fluorescence, 300 nM azd ([6]; 300 nM AZD-0328): −1.73%
- percent quench of YFP fluorescence, 30 uM azd ([6]; 30 uM AZD-0328): 47.39%
- percent quench of YFP fluorescence, 100 nM apn ([7]; 100 nM APN-1125): −18.17%
- percent quench of YFP fluorescence, 1 uM apn ([7]; 1 uM APN-1125): −15.2%
- percent quench of YFP fluorescence, 30 uM apn ([7]; 30 uM APN-1125): −14%
- percent quench of YFP fluorescence, 1 uM tc6 ([8]; 1 uM TC-6987): 31.9%
- percent quench of YFP fluorescence, 10 uM tc6 ([8]; 10 uM TC-6987): 25.54%
- percent quench of YFP fluorescence, 500 uM tc6 ([8]; 500 uM TC-6987): 21.13%
